Measured values as given in patent publication US20230406885A1, “CYCLIC PEPTIDES FOR TRAPPING INTERLEUKIN-1 BETA” (MERCK SHARP & DOHME LLC, priority 2022, published 2023).
*1 amine or outer side, *2 acyl side, *3 side chain or, on linkers, in order; H or OH if unused. [ ]: non-standard residue; d: D form. TyrEtNAc = L-tyrosine O-ethyl acetamide, (S)-3-(4-(2-acetamidoethoxy)phenyl)-2-aminopropanoic acid, CC(=O)NCCOc1ccc(C[C@H](N[*:1])C(=O)[*:2])cc1; PyrimAla4AcPip = (S)-3-(2-(4-acetylpiperazin-1-yl)pyrimidin-5-yl)-2-aminopropanoic acid, CC(=O)N1CCN(c2ncc(C[C@H](N[*:1])C(=O)[*:2])cn2)CC1; Prot4NHCH2CH2Ph = (2S,4R)-4-(phenethylamino)pyrrolidine-2-carboxylic acid, O=C([C@@H]1C[C@@H](N(CCc2ccccc2)[*:3])CN1[*:1])[*:2]; Prot4NHEt = (2S,4R)-4-(ethylamino)pyrrolidine-2-carboxylic acid, CCN([C@@H]1C[C@@H](C(=O)[*:2])N([*:1])C1)[*:3]; Phe(4-(4-Ac-piperazinyl)) = CC(=O)N1CCN(c2ccc(C[C@H](N)C(=O)O)cc2)CC1; Trp(4-Cl)(βS-Me) = C[C@@H](c1c[nH]c2cccc(Cl)c12)[C@H](N)C(=O)O; Pro(trans-4-NH2) = O=C([C@@H]1C[C@@H](N[*:3])CN1[*:1])[*:2]; Bip(4'-COOH) = N[C@@H](Cc1ccc(-c2ccc(C(=O)O)cc2)cc1)C(=O)O; 1Nal(3S-Me) = C[C@@H](c1cccc2ccccc12)[C@H](N)C(=O)O; Phe(4-COOH) = N[C@@H](Cc1ccc(C(=O)O)cc1)C(=O)O; hTyr = N[C@@H](CCc1ccc(O)cc1)C(=O)O; dDab = NCC[C@@H](N)C(=O)O; dNMeA = CN[C@H](C)C(=O)O; Dap = NC[C@H](N)C(=O)O

What follows are binders tested against Recombinant human IL-1β (BioLegend 579404) (human, UniProt P01584 117-269) (assay: cell-based or functional assay).

Row | Binder | MRC5 IC50 [pM]
1 | cyclo([TyrEtNAc]W[Phe(4-COOH)]G[Pro(trans-4-NH2)][1Nal(3S-Me)]A[dNMeA]G[Bip(4'-COOH)]W[Dap][dA][hTyr]) (SMILES CC(=O)NCCOc1ccc(C[C@@H]2NC(=O)[C@H](CCc3ccc(O)cc3)NC(=O)[C@@H](C)NC(=O)[C@H](CN)NC(=O)[C@H](Cc3c[nH]c4ccccc34)NC(=O)[C@H](Cc3ccc(-c4ccc(C(=O)O)cc4)cc3)NC(=O)CNC(=O)[C@@H](C)N(C)C(=O)[C@H](C)NC(=O)[C@H]([C@@H](C)c3cccc4ccccc34)NC(=O)[C@@H]3C[C@@H](N)CN3C(=O)CNC(=O)[C@H](Cc3ccc(C(=O)O)cc3)NC(=O)[C@H](Cc3c[nH]c4ccccc34)NC2=O)cc1) [SEQ ID NO: 89] | 271
2 | cyclo([Bip(4'-COOH)]W[Phe(4-COOH)]G[Prot4NHEt][1Nal(3S-Me)]D[dNMeA]G[Bip(4'-COOH)]W[Dap][dA][hTyr]) (SMILES CCN[C@@H]1C[C@H]2C(=O)N[C@@H]([C@@H](C)c3cccc4ccccc34)C(=O)N[C@@H](CC(=O)O)C(=O)N(C)[C@H](C)C(=O)NCC(=O)N[C@@H](Cc3ccc(-c4ccc(C(=O)O)cc4)cc3)C(=O)N[C@@H](Cc3c[nH]c4ccccc34)C(=O)N[C@@H](CN)C(=O)N[C@H](C)C(=O)N[C@@H](CCc3ccc(O)cc3)C(=O)N[C@@H](Cc3ccc(-c4ccc(C(=O)O)cc4)cc3)C(=O)N[C@@H](Cc3c[nH]c4ccccc34)C(=O)N[C@@H](Cc3ccc(C(=O)O)cc3)C(=O)NCC(=O)N2C1) [SEQ ID NO: 84] | 25.8
3 | cyclo([Phe(4-(4-Ac-piperazinyl))]W[Phe(4-COOH)]G[Pro(trans-4-NH2)][Trp(4-Cl)(βS-Me)]D[dNMeA]G[Bip(4'-COOH)]WG[dDab][hTyr]) (SMILES CC(=O)N1CCN(c2ccc(C[C@@H]3NC(=O)[C@H](CCc4ccc(O)cc4)NC(=O)[C@@H](CCN)NC(=O)CNC(=O)[C@H](Cc4c[nH]c5ccccc45)NC(=O)[C@H](Cc4ccc(-c5ccc(C(=O)O)cc5)cc4)NC(=O)CNC(=O)[C@@H](C)N(C)C(=O)[C@H](CC(=O)O)NC(=O)[C@H]([C@@H](C)c4c[nH]c5cccc(Cl)c45)NC(=O)[C@@H]4C[C@@H](N)CN4C(=O)CNC(=O)[C@H](Cc4ccc(C(=O)O)cc4)NC(=O)[C@H](Cc4c[nH]c5ccccc45)NC3=O)cc2)CC1) [SEQ ID NO: 85] | 54.3
4 | cyclo([PyrimAla4AcPip]W[Phe(4-COOH)]G[Pro(trans-4-NH2)][1Nal(3S-Me)]D[dNMeA]G[Bip(4'-COOH)]W[Dap][dA][hTyr]) (SMILES CC(=O)N1CCN(c2ncc(C[C@@H]3NC(=O)[C@H](CCc4ccc(O)cc4)NC(=O)[C@@H](C)NC(=O)[C@H](CN)NC(=O)[C@H](Cc4c[nH]c5ccccc45)NC(=O)[C@H](Cc4ccc(-c5ccc(C(=O)O)cc5)cc4)NC(=O)CNC(=O)[C@@H](C)N(C)C(=O)[C@H](CC(=O)O)NC(=O)[C@H]([C@@H](C)c4cccc5ccccc45)NC(=O)[C@@H]4C[C@@H](N)CN4C(=O)CNC(=O)[C@H](Cc4ccc(C(=O)O)cc4)NC(=O)[C@H](Cc4c[nH]c5ccccc45)NC3=O)cn2)CC1) [SEQ ID NO: 88] | 94.5
5 | cyclo([Bip(4'-COOH)]W[Phe(4-COOH)]G[Prot4NHCH2CH2Ph][1Nal(3S-Me)]D[dNMeA]G[Bip(4'-COOH)]W[Dap][dA][hTyr]) (SMILES C[C@@H]1C(=O)NCC(=O)N[C@@H](Cc2ccc(-c3ccc(C(=O)O)cc3)cc2)C(=O)N[C@@H](Cc2c[nH]c3ccccc23)C(=O)N[C@@H](CN)C(=O)N[C@H](C)C(=O)N[C@@H](CCc2ccc(O)cc2)C(=O)N[C@@H](Cc2ccc(-c3ccc(C(=O)O)cc3)cc2)C(=O)N[C@@H](Cc2c[nH]c3ccccc23)C(=O)N[C@@H](Cc2ccc(C(=O)O)cc2)C(=O)NCC(=O)N2C[C@H](NCCc3ccccc3)C[C@H]2C(=O)N[C@@H]([C@@H](C)c2cccc3ccccc23)C(=O)N[C@@H](CC(=O)O)C(=O)N1C) [SEQ ID NO: 83] | 32.9
